Source: article PMC7447434, “Atomic structure of a mitochondrial complex I intermediate from vascular plants” (eLife, 2020)

T1: NU2M (Vigna radiata, UniProt E9KZK9 1-488, S19F | S103F | S104F | P119L | P121S | R123C | H132Y | P143L | S166LL | S221F | …)
T1 construct: NU2M, mitochondrially encoded core PP-module subunit of Vigna radiata complex I; 488 residues; residues 1-487 modelled; 14 TMH; the substitutions are RNA editing sites against the entry, made in the model where the density fitted the edited residue; RNA edits are natural; 'S166LL' is printed so and was read as S166L; also called Nad2 (A. thaliana name)
T1 sequence (looked up): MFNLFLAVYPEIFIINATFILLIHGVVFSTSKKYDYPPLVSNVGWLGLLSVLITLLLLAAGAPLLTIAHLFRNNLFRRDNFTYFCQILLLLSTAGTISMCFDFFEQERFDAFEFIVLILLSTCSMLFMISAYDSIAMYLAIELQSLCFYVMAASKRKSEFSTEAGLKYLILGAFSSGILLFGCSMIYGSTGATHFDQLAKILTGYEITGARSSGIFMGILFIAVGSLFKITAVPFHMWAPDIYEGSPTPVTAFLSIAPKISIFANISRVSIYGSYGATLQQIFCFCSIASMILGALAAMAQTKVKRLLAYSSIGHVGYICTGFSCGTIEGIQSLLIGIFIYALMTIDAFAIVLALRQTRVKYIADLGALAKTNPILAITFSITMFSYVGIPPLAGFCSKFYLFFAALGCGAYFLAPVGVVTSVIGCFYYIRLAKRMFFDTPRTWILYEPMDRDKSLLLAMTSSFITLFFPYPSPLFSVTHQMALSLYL

B1: CA1 (natural protein, Vigna radiata, UniProt A0A1S3VT00 1-270, looked up)
chain: MGTLGRAFYAVGFWIRETGQAIDRLGSRLQGNYLFQEQLSRHRPLMNLFDKYPSVHKDAFVAPSASLLGDVHVGPASSIWYGCVLRGDVNGIVIGSGTNIQDNSLVHVAKSNLTGKVLPTIIGDNVTVGHSAVLQGCTVEDEAFIGMGATLLDGVYVEKHAMVAAGALVRQNTRIPYGEVWGGNPAKFLRKLTEDEMAFFSQSALNYSNLAQAHAAENAKELEETEFVKVLHKKFAPRGEEYDSILDGGQETPAKLNLQDNVLLDKAPKA
notes: CA1, gamma-carbonic-anhydrase domain subunit of Vigna radiata mitochondrial complex I; 270 residues; residues 3-222 modelled, 223-233 as poly-Ala; also called carbonic-anhydrase-1 subunit; Gamma-CA 1 (A. thaliana name)
B2: NDUC2 (natural protein, Vigna radiata, UniProt A0A1S3UPL8 1-81, looked up)
chain: MVLSATTIGALLGLGTQMYSNALRKLPYMRHPWEHVVGMGLGAVFVNQLLKWEAQVEQDLDKMLEKAKAANERRYIDGDDD
notes: NDUC2, membrane arm accessory subunit of Vigna radiata mitochondrial complex I; 81 residues; residues 5-68 modelled; 2 TMH; also called B14.5b (A. thaliana name)
B3: NDUX1 (natural protein, Vigna radiata, UniProt A0A1S3VI15 1-101, looked up)
chain: MNTDITASTKPEYPVVDRNPPFTKVVGNFSTLDYLRFVTITGVSVTVGYLSGIKPGIRGPSMVTGGLIGVMGGFMYAYQNSAGRLMGFFPNDDEVARHNKK
notes: NDUX1, PP-module accessory subunit of Vigna radiata mitochondrial complex I, named here after Y. lipolytica NUXM; 101 residues; residues 1-100 modelled; 2 TMH; also called homologue of Y. lipolytica NUXM; 20.9 kDa (A. thaliana name)

Columns and labels:
Assay in all cases: cryo-EM structure; CI* (~800 kDa assembly intermediate) from V. radiata mitochondrial membranes, digitonin-extracted, amphipol A8-35-stabilised, sucrose gradient; 6 mg/ml in 20 mM HEPES, 150 mM NaCl, 1 mM EDTA, 0.1% digitonin, pH 7.8; nominal resolution 3.9 Å; interfaces of the γCA domain listed from the model with PDBePISA
Conditions in all cases: both partners purified
NU2M [1] = target: T1, NU2M
CA1 = target: B1
NU2M [2] = target: T1, NU2M; remark: listed apart in the source

B1: binds (NU2M [1]).

B2: binds (CA1); binds (NU2M [2]).

B3: binds (CA1); binds (NU2M [2]).
